Consider 15 proteins from paper PMC9895041, “Molecular evolutionary insight of structural zinc atom in yeast xylitol dehydrogenases and its application in bioethanol production by lignocellulosic biomass” (Scientific Reports, 2023).

Numbering of substitutions follows the chain as printed. Numbers in names are those of the source.

Substrate in data set [1]: OC[C@@H](O)[C@H](O)[C@@H](O)CO
Description: purified protein. Particulars: 1.5 mM NAD+, 50 mM Tris-HCl pH 8.0, 30 °C.

Data set [2] deals with the molecule itself. Description: SEC; gel filtration of the sample purified by Ni-NTA (HiLoad 16/600 Superdex 200 pg, 20 mM Tris-HCl pH 8.0, 150 mM NaCl). In general terms: Size exclusion chromatography separates by hydrodynamic size, large species first.
Data set [3] concerns the molecule itself. Put plainly: SEC; analytical size-exclusion chromatography of PsXDHC4 in solution.
Substrate in data set [4]: OC[C@@H](O)[C@H](O)[C@@H](O)CO
Description: purified protein. In kind it is biochemical, Scheffersomyces stipitis. Particulars: […] NAD+, 50 mM Tris-HCl pH 8.0, 30 °C.

B1: SpXDH C97S mutant (enzyme, Schizosaccharomyces pombe, UniProt P36624 1-360, looked up)
chain: MAPAEKAFVLRKKMDTAIEDRPGQTLTDDHQVKVAIKATGICGSDVHYWKEGGIGDFILKKPMILGHESAGVVVEVGKGVSSLKPGDPVAVEPGCVSRLCDYCRSGRYNLCPHMEFAATPPYDGTLRTYYITTEDFCTKLPKQISVEEGALFEPMSVAVHAMTRGNLKCGSRVLVMGCGTVGLLMMAVAKAYGAIDIVAVDASPSRVEFAQKYVGAKPFTPIAAKENESLPDYAQRYKQAIIEKYGEFDFAVDATGVGICIHTAVLALKRGGTFVQAGNGKPVIDFPINHIINYEINVLGSFRYAHGCYKQSLFLVSNGLVDVKPLITHRFAFKDALKAYETVASGEEGVLKVIIGGPDA
notes: SPBC1773.05c protein of S. pombe (SpXDH), cloned into pQE-81L; source: E. coli DH5α, purified (Ni-NTA)
As for B1, in the data set “purified protein [1]” (1-10 mM xylitol), the Km was 12.3 ± 2.3 mM, the kcat stood at 6.03 s⁻¹ and the kcat/Km was found to be 493 M⁻¹ s⁻¹. Also, in data set [2], the “stoichiometry N” value was 4.

B2: SpXDH (Schizosaccharomyces pombe 972h-; C100D) (protein)
chain: B1 chain with S97C, C100D
As for B2, in the data set “purified protein [1]” (1-10 mM xylitol), the Michaelis constant (Km) was found to be 8.26 ± 0.89 mM, the kcat stood at 2.17 s⁻¹ and the kcat/Km turned out to be 263 M⁻¹ s⁻¹.

B3: SpXDH C111S mutant (enzyme, Schizosaccharomyces pombe, UniProt P36624 1-360, looked up)
chain: B1 chain with S97C, C111S
notes: as for B1
As to B3, in data set [2], the “stoichiometry N” value was found to be 4.

B4: SpXDH C103S mutant (enzyme, Schizosaccharomyces pombe, UniProt P36624 1-360, looked up)
chain: B1 chain with S97C, C103S
notes: as for B1
For the protein B4, in the data set “purified protein [1]” (xylitol range not marked), the Km is 9.01 ± 0.74 mM, the kcat is 2.08 s⁻¹ and the kcat/Km was 233 M⁻¹ s⁻¹. Further, the “stoichiometry N” value in data set [2] stood at 4.

B5: SpXDH C103D mutant (enzyme, Schizosaccharomyces pombe, UniProt P36624 1-360, looked up)
chain: B1 chain with S97C, C103D
notes: as for B1
Consider B5, for which, in “purified protein [1]” (1-10 mM xylitol), the Km stood at 10.5 ± 0.7 mM, the kcat amounted to 7.82 s⁻¹ and the kcat/Km turned out to be 743 M⁻¹ s⁻¹. Moreover, the “stoichiometry N” value in data set [2] was 4.

B6: SpXDH (Schizosaccharomyces pombe 972h-; C111D) (protein)
chain: B1 chain with S97C, C111D
On to B6, for which, in the data set “purified protein [1]” (1-10 mM xylitol), the Km was 9.76 ± 0.15 mM, the kcat was 3.6 s⁻¹ and the kcat/Km is 368 M⁻¹ s⁻¹.

B7: SpXDH C97D mutant (enzyme, Schizosaccharomyces pombe, UniProt P36624 1-360, looked up)
chain: B1 chain with S97D
notes: as for B1
As to B7, in the data set “purified protein [1]” (1-10 mM xylitol), the Km is on record as 10.4 ± 0.1 mM, the kcat worked out at 6.78 s⁻¹ and the kcat/Km amounted to 650 M⁻¹ s⁻¹. Also, in data set [2], the “stoichiometry N” value turned out to be 4.

B8: SpXDH C100S mutant (enzyme, Schizosaccharomyces pombe, UniProt P36624 1-360, looked up)
chain: B1 chain with S97C, C100S
notes: as for B1
On to B8, for which, in “purified protein [1]” (1-10 mM xylitol), the Km worked out at 16.2 ± 5.0 mM, the kcat came to 0.202 s⁻¹ and the kcat/Km was 12.4 M⁻¹ s⁻¹. Besides, the “stoichiometry N” value in data set [2] came to 4.

B9: SpXDH wild type (xylitol dehydrogenase, SPBC1773.05c protein from Schizosaccharomyces pombe) (enzyme, UniProt P36624 1-360, looked up)
chain: B1 chain with S97C
notes: cloned into pQE-81L; also called SpXDHWT; WT; source: E. coli DH5α, purified (Ni-NTA)
Regarding B9, in “purified protein [1]” (1-10 mM xylitol), the Km is on record as 6.10 ± 0.34 mM, the kcat is 6.95 s⁻¹ and the kcat/Km is 1140 M⁻¹ s⁻¹. In addition, in data set [2], the “stoichiometry N” value worked out at 4.

B10: PsXDHC4 mutant (xylitol dehydrogenase from Pichia stipitis, S96C/S99C/Y102C) (enzyme)
chain: TANPSLVLNKIDDISFETYDAPEISEPTDVLVQVKKTGICGSDIHFYAHGRIGNFVLTKPMVLGHESAGTVVQVGKGVTSLKVGDNVAIEPGIPCRFCDECKSGHYNLCPHMAFAATPNSKEGEPNPPGTLCKYFKSPEDFLVKLPDHVSLELGALVEPLSVGVHASKLGSVAFGDYVAVFGAGPVGLLAAAVAKTFGAKGVIVVDIFDNKLKMAKDIGAATHTFNSKTGGSEELIKAFGGNVPNVVLECTGAEPCIKLGVDAIAPGGRFVQVGNAAGPVSFPITVFAMKELTLFGSFRYGFNDYKTAVGIFDTNYQNGRENAPIDFEQLITHRYKFKDAIEAYDLVRAGKGAVKCLIDGPE
notes: xylitol dehydrogenase (XDH) of Pichia stipitis (Scheffersomyces stipitis), encoded by the PICST_86924 gene, cloned into pQE-81L; the model holds Thr2-Pro362 (Ser121-Gly124 not built); source: E. coli DH5α, purified (Ni-NTA, Superdex 200)
B10: the “stoichiometry N” value in data set [3] turned out to be 4.

B11: ScXDH (Saccharomyces cerevisiae S288C) (protein)
chain: MTDLTTQEAIVLERPGKITLTNVSIPKISDPNEVIIQIKATGICGSDIHYYTHGRIANYVVESPMVLGHESSGIVALIGENVKTLKVGDRVALEPGIPDRFSPEMKEGRYNLDPNLKFAATPPFDGTLTKYYKTMKDFVYKLPDDVSFEEGALIEPLSVAIHANKLAKIKFGARCVVFGAGPIGLLAGKVASVFGAADVVFVDLLENKLETARQFGATHIVNSGDLPHGVTVDSVIKKAIGKKGADVVFECSGAEPCVRAGIEVCKAGGTIVQVGMGQEEIQFPISIIPTKELTFQGCFRYCQGDYSDSIELVSSRKLSLKPFITHRYSFKDAVEAFEETSHHPLNNIKTIIEGPE
Take B11: in the data set “purified protein [1]” (0.1-1 mM xylitol), the Km was determined as 1.82 ± 0.42 mM, the kcat worked out at 0.0182 s⁻¹ and the catalytic efficiency (kcat/Km) was found to be 10.1 M⁻¹ s⁻¹.

B12: ScXDH (Saccharomyces cerevisiae S288C; D113C/D99C/M105C/S102C) (protein)
chain: B11 chain with D99C, S102C, M105C, D113C
For B12, in the data set “purified protein [1]” (0.1-1 mM xylitol), the Km is recorded as 5.44 ± 0.78 mM, the kcat was 0.402 s⁻¹ and the kcat/Km worked out at 74 M⁻¹ s⁻¹.

B13: PsXDH (Scheffersomyces stipitis CBS 6054) (protein)
chain: MTANPSLVLNKIDDISFETYDAPEISEPTDVLVQVKKTGICGSDIHFYAHGRIGNFVLTKPMVLGHESAGTVVQVGKGVTSLKVGDNVAIEPGIPSRFSDEYKSGHYNLCPHMAFAATPNSKEGEPNPPGTLCKYFKSPEDFLVKLPDHVSLELGALVEPLSVGVHASKLGSVAFGDYVAVFGAGPVGLLAAAVAKTFGAKGVIVVDIFDNKLKMAKDIGAATHTFNSKTGGSEELIKAFGGNVPNVVLECTGAEPCIKLGVDAIAPGGRFVQVGNAAGPVSFPITVFAMKELTLFGSFRYGFNDYKTAVGIFDTNYQNGRENAPIDFEQLITHRYKFKDAIEAYDLVRAGKGAVKCLIDGPE
notes: full length, N-terminal His6 tag (pQE-81L), E. coli DH5alpha; homotetramer; 7Y9P is the apo C4 mutant
Regarding B13, in “purified protein [4]” (0.1-1 mM xylitol), the Km came out at 2.05 ± 0.20 mM, the kcat stood at 0.63 ± 0.0583 s⁻¹ and the kcat/Km is 307 ± 3.33 M⁻¹ s⁻¹.

B14: PsXDH (Scheffersomyces stipitis CBS 6054; S96C/S99C/Y102C) (protein)
chain: B13 chain with S96C, S99C, Y102C
notes: as for B13
For B14, in the data set “purified protein [4]” (0.1-1 mM xylitol), the Km is reported as 4.94 ± 1.62 mM, the kcat was determined as 6.4 ± 1.85 s⁻¹ and the kcat/Km came out at 1320 ± 66.7 M⁻¹ s⁻¹.

B15: PsXDH (Scheffersomyces stipitis CBS 6054; S96D/S99C/Y102C) (protein)
chain: B13 chain with S96D, S99C, Y102C
notes: as for B13
As for B15, in “purified protein [4]” (1-10 mM xylitol), the Km turned out to be 11.0 ± 1.2 mM, the kcat was determined as 9.17 ± 0.633 s⁻¹ and the kcat/Km was found to be 837 ± 28.3 M⁻¹ s⁻¹.

The Km is the substrate concentration at which the rate is half of its maximum. As usually defined, the kcat is the maximal rate divided by the concentration of active sites. One may read the kcat/Km as the turnover number divided by the Michaelis constant. The term stoichiometry N denotes a count of units in the complex or per binding partner.
